Measured values: patent US20240182536A1 (MURAL ONCOLOGY, published 2024)
Positions count from the first letter of the chain named. Names and notes keep the numbering of the source. Where two headings read alike, the source gives them in different places.

B1: Comparator 1 (human IL-18 variant M51K, K53S, Q56L, P57A, M60L, S105D, D110S, N111R) (ligand)
chain: YFGKLESKLSVIRNLNDQVLFIDQGNRPLFEDMTDSDCRDNAPRTIFIISKYSDSLARGLAVTISVKCEKISTLSCENKIISFKEMNPPDNIKDTKSDIIFFQRDVPGHSRKMQFESSSYEGYFLACEKERDLFKLILKKEDELGDRSIMFTVQNED
B2: Comparator 1-monospecific KiH (Fc fusion)
chain: B1 chain
B3: IL-18 variant G3V, M60K, D157E (ligand)
chain: YFVKLESKLSVIRNLNDQVLFIDQGNRPLFEDMTDSDMRDNAPRTIFIISMYKDSQPRGKAVTISVKSEKISTLSSENKIISFKEMNPPDNIKDTKSDIIFFQRSVPGHDNKMQFESSSYEGYFLASEKERDLFKLILKKEDELGDRSIMFTVQNEE
B4: IL-18 variant G3E, K53S (ligand)
chain: B3 chain with V3E, K53S, K60M, E157D

How the values were obtained:
[1] = molecular target: T1, IL-18 receptor (IL-18Rα and IL-18Rβ) (UniProt Q13478 19-541; O95256 20-599, limits assumed); assay: cell-based or functional assay
T1 sequence (looked up) 1: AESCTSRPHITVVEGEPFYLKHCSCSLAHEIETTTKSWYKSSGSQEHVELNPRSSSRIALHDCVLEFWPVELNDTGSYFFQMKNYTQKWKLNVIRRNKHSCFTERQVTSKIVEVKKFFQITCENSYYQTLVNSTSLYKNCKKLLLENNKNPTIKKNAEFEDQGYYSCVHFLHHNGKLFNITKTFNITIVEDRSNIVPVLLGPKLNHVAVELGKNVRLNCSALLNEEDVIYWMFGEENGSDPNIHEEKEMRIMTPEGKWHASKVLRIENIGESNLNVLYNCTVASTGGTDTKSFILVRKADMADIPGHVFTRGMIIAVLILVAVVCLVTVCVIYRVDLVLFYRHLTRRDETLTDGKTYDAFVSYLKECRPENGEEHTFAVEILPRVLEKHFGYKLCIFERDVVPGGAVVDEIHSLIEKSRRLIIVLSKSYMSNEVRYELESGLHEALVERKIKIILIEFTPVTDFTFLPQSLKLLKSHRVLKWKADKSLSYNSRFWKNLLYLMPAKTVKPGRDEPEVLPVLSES
T1 sequence (looked up) 2: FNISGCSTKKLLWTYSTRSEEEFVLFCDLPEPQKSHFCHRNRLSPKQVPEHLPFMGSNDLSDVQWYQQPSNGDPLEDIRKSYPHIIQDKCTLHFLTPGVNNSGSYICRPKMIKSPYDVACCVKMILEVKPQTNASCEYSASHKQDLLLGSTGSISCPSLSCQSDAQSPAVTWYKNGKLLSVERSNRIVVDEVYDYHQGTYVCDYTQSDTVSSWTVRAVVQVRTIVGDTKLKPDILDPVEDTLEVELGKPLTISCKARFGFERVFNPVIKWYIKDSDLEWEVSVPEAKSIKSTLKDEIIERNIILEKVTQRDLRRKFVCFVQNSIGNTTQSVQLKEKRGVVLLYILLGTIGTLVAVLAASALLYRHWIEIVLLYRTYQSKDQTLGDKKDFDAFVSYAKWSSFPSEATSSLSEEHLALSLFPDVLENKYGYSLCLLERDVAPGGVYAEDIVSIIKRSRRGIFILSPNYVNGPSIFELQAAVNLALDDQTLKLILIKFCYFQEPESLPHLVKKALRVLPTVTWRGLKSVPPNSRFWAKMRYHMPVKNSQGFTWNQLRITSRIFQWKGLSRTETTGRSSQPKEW

[2] = molecular target: T2, human IL-18R alpha/beta pair (IL-18Rab) (human, UniProt Q13478 19-329; O95256 20-356); assay: Octet BLI
T2 construct: also called hu IL-18Rab
T2 sequence (looked up) 1: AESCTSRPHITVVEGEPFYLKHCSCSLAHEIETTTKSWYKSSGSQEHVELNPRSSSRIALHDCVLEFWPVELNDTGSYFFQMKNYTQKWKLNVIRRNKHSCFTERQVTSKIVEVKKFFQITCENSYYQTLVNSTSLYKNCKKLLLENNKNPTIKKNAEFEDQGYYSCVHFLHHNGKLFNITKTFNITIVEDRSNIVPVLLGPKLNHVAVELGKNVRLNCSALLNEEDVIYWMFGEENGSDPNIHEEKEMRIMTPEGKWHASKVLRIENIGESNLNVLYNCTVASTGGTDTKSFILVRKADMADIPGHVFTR
T2 sequence (looked up) 2: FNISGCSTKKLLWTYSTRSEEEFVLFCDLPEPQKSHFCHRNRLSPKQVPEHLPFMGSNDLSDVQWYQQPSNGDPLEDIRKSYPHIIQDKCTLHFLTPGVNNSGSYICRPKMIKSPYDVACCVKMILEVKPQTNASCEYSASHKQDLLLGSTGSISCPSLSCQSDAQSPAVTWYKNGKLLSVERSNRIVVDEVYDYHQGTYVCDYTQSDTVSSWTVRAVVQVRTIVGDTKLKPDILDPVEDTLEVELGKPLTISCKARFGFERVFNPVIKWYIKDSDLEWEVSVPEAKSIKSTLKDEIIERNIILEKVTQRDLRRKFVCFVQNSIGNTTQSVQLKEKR
Method: (§1) Octet 96red instrument was used to determine affinities of IL18 proteins to BP or receptors. 5-10 ug/ml analyte proteins were used for loading on Sartorius tips (AHC or SA). […] 120-180 s loading, 200 s association and 800 s dissociation were used for kinetics. 3-7 data points were used to calculate affinities.

[3] = molecular target: T3, human IL-18 binding protein (IL-18BP) (human, UniProt O95998 31-194); assay: Octet BLI
T3 construct: also called hu IL-18BP; hIL18BP
T3 sequence (looked up): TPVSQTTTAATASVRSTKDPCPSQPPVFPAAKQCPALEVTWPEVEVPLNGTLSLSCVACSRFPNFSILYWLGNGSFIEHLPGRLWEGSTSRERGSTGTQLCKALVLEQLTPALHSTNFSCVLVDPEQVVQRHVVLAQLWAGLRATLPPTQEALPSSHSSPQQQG
Method: as §1

[4] = molecular target: T4, human IL-18 receptor alpha (IL-18Rα) (human, UniProt Q13478 19-329, limits assumed); assay: Octet BLI
T4 construct: also called hu IL-18Ra; IL-18R alpha
T4 sequence (looked up): T2 sequence (looked up) 1
Method: as §1

[5] = molecular target: T1, IL-18 receptor (IL-18Rα and IL-18Rβ); assay: cell-based or functional assay; remark: listed apart in the source
[6] = molecular target: T3, human IL-18 binding protein (IL-18BP); assay: cell-based or functional assay
[7] = molecular target: T5, IL-18 receptors on HEK-Blue IL-18 reporter cells (InvivoGen) (UniProt Q13478 19-541; O95256 20-599); assay: cell-based or functional assay
T5 sequence (looked up) 1: T1 sequence (looked up) 1
T5 sequence (looked up) 2: T1 sequence (looked up) 2

[8] = molecular target: T3, human IL-18 binding protein (IL-18BP); assay: cell-based or functional assay; remark: listed apart in the source
[9] = molecular target: T5, IL-18 receptors on HEK-Blue IL-18 …; assay: cell-based or functional assay; remark: listed apart in the source
[10] = molecular target: T3, human IL-18 binding protein (IL-18BP); assay: cell-based or functional assay; remark: listed apart in the source
[11] = molecular target: T5, IL-18 receptors on HEK-Blue IL-18 …; assay: cell-based or functional assay; remark: listed apart in the source
[12] = molecular target: T3, human IL-18 binding protein (IL-18BP); assay: cell-based or functional assay; remark: listed apart in the source
[13] = molecular target: T6, human IL-18 binding protein (human, UniProt O95998 31-194); assay: cell-based or functional assay
T6 sequence (looked up): T3 sequence (looked up)

[14] = molecular target: T7, IL-18 receptors on HEK-Blue IL-18 reporter cells (UniProt Q13478 19-541; O95256 20-599, limits assumed); assay: cell-based or functional assay
T7 sequence (looked up) 1: T1 sequence (looked up) 1
T7 sequence (looked up) 2: T1 sequence (looked up) 2

[15] = molecular target: T5, IL-18 receptors on HEK-Blue IL-18 …; assay: cell-based or functional assay; remark: listed apart in the source
[16] = molecular target: T3, human IL-18 binding protein (IL-18BP); assay: cell-based or functional assay; remark: listed apart in the source
[17] = molecular target: T3, human IL-18 binding protein (IL-18BP); assay: Octet BLI; remark: listed apart in the source
[18] = molecular target: T2, human IL-18R alpha/beta pair (IL-18Rab); assay: Octet BLI; remark: listed apart in the source
[19] = molecular target: T3, human IL-18 binding protein (IL-18BP); assay: Octet BLI; remark: listed apart in the source
[20] = molecular target: T4, human IL-18 receptor alpha (IL-18Rα); assay: Octet BLI; remark: listed apart in the source

Binder | EC50 pM, IFN gamma expression in PBMCs [1] [pM] | Kd [2] [nM] | Kd [4] [nM] | EC50 pM, IFN gamma expression in PBMCs, no BP [5] [pM] | EC50 pM, IFN gamma expression in PBMCs, + 300 nM BP [6] [pM] | HEK-Blue EC50 pM, NO BP (50 nM BP run) [7] [pM] | HEK-Blue EC50 pM, NO BP (300 nM BP run) [7] [pM] | Fold Change (BP/NO BP), 50 nM BP [8] [fold] | Fold Change (BP/NO BP), 300 nM BP [8] [fold] | HEK-Blue EC50 pM, +50 nM BP [8] [pM] | HEK-blue EC50 (pM) + 300 nM BP [8] [pM] | HEK-Blue Ec50 (pM), -IL-18BP [9] [pM] | HEK-Blue Ec50 (pM), +IL-18BP (50 nM) [10] [pM] | HEK-Blue Activity Assay Ec50 (pM), -hu IL-18BP [11] [pM] | HEK-Blue Activity Assay Ec50 (pM), +300 nM hu IL-18BP [12] [pM] | further results
B1 | 0.093 | 0.43 | 16 | 1.22 | 1.82 | 0.02 | 0.13 | 2.5 | 0.83 | 0.04 | 0.11 | 0.15 | 0.22 | 0.08 | 0.09 | binding result [3]: no binding
B2 |  |  |  |  |  |  |  |  |  |  |  |  |  |  |  | HEK-blue EC50 (pM) + 300 nM IL-18BP [13]: 0.03 pM; HEK-blue EC50 (pM) - IL-18BP [14]: 0.03 pM
B3 |  | 0.13 | 43 | 6.61 | 13 | 0.08 | 0.16 | 1.74 | 3.74 | 0.14 | 0.6 |  |  | 0.16 | 0.6 | Kd [3]: 87 nM
B4 | 517 |  |  |  |  |  |  |  |  |  |  | 2.69 | 4.41 |  |  | HEK-Blue Activity Assay Ec50 (pM), -hu IL-18BP [15]: 2.69 pM; HEK-Blue Activity Assay Ec50 (pM), +50 nM hu IL-18BP [16]: 4.41 pM; Kd [17]: 396 nM; koff [17]: 0.0311 s⁻¹; kon [17]: 78500 M⁻¹ s⁻¹; Kd [18]: 0.31 nM; Kd [19]: 396 nM; Kd [20]: 8920 nM
